Test results: patent publication US20230030314A1, “Method for Diagnosing Cancer, Cancer Diagnosis Composition, Cancer Diagnosis Kit, Method for Evaluating State of Cancer, and Method for Screening Agents for Preventing and/or Treating Cancer” (Kyushu University, National University Corporation, priority 2019, published 2023)
Ends that are not written are not given here.

Molecular target: T1, PKCα (Homo sapiens, UniProt P17252)
T1 construct: endogenous in cells; host or cells: KU-1, KU-7, T24, TCCSUP, UMUC-3 bladder cancer cells
Test: Phosphorylation of substrate peptide in bladder cancer-derived culture cells, MALDI-TOF MS
Assay type: biochemical
Conditions: bladder cancer-derived culture cells KU-1, KU-7, T24, TCCSUP, UMUC-3 (0.2 mg/ml cells); 30 μM peptide, 100 μM ATP, 37° C., 60 minutes
Method: An α-cyano-4-hydroxycinnamic acid (CHCA) matrix (10 mg/ml) was prepared in 50% water/acetonitrile and 0.1% TFA. This matrix and a sample were mixed in a ratio of 20:1. The resultant specimen/matrix mixture in a total volume of 1 μl was applied on a sample plate, and the resultant was crystallized by drying. In this example, Auto Flex Speed manufactured by Bruker was used in positive or negative mode. An acceleration voltage was set to 20 kV, and extraction delay time was set to 100 ns. Typically, 100 laser shots were averaged to improve a signal/noise ratio. All spectra were analyzed with Flex Analysis software (Bruker). A phosphorylation percentage was defined as an ionic strength ratio between a phosphorylated substance and a non-phosphorylated substance, and was calculated in accordance with existing description (Kang, J. -H. et al., (2007) J. Am. Soc. Mass Spectrom. 18, 106-112; and Kang J. -H. et al., (2007) J. Am. Soc. Mass Spectrom. 18, 1925-1931). In order to examine whether or not the PKCα specific substrate peptide could be phosphorylated by bladder cancer, culture cells derived from 5 different bladder cancers (KU-1, KU-7, T24, TCCSUP, and UMUC-3) were analyzed by MALDI-TOF MS. […] After performing incubation at 37° C. for 60 minutes, the resultant sample was analyzed by MALDI-TOF MS.

phosphorylation percentage of the substrate peptide: high phosphorylation percentages
Substance: FKKQGSFAKKK-NH2 [substrate peptide]
